Measurements reported in paper PMC3852957.

How the values were obtained:
[1] = biological target: human GLP-1 receptor (human) (UniProt P43220)
rat serum albumin (rat) = rat serum albumin (rat) (UniProt P02770); assay: SPR; Biacore; 500 resonance units of albumin coupled to a CM5 chip; GAlbudAb flowed in HBS-P+ buffer at 39 nM to 5 μM; KD by the 1:1 interaction model in BiaEval software
[2] = biological target: cynomolgus monkey serum albumin (cynomolgus monkey) (UniProt A2V9Z4); assay: as above
[3] = biological target: human serum albumin (human) (UniProt P02768); assay: as above
Chain of UniProt P02768 (P02768 25-609): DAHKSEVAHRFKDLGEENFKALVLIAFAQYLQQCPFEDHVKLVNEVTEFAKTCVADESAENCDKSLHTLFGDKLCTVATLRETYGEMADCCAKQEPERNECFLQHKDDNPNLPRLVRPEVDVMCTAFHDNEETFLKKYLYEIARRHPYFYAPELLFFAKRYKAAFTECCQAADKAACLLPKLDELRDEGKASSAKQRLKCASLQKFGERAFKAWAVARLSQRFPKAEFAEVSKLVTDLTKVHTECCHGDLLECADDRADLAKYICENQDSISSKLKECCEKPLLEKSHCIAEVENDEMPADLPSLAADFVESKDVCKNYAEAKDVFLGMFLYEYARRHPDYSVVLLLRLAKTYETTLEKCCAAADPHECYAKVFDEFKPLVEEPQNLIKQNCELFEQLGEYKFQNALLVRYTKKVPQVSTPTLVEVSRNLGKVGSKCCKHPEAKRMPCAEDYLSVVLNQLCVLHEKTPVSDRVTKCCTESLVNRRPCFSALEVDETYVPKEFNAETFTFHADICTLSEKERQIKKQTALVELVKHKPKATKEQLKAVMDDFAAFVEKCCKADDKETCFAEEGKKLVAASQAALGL

Chain of UniProt P43220 (P43220 24-463): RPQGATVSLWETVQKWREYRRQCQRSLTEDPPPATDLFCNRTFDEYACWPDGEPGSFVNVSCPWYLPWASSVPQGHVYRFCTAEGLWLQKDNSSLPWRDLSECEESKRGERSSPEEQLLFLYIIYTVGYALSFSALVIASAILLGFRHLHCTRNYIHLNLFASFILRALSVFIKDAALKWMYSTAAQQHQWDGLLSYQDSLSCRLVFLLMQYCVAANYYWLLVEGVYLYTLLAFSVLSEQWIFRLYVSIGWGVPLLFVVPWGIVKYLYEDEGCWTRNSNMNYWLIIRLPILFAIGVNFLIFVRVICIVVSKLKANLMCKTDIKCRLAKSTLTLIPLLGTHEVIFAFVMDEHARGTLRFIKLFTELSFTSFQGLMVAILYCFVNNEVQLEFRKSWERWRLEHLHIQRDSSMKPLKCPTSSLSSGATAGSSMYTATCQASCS
Chain of UniProt A2V9Z4 (A2V9Z4 25-608): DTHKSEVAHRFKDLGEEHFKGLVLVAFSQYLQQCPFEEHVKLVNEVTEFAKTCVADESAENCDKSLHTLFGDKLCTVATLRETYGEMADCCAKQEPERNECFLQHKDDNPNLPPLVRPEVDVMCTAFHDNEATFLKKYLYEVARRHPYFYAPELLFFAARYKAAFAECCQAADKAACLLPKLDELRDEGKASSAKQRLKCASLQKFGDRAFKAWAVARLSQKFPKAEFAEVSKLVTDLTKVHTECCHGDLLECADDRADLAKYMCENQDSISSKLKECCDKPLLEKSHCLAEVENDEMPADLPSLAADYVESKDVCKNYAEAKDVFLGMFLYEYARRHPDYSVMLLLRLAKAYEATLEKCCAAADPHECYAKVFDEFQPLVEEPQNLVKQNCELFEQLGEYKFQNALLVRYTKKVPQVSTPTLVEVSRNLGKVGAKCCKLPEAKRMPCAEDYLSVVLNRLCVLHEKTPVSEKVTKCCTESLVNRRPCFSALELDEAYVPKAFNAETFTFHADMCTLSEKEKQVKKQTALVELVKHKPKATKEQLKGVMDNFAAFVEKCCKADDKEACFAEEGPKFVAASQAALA
Chain of UniProt P02770 (P02770 25-608): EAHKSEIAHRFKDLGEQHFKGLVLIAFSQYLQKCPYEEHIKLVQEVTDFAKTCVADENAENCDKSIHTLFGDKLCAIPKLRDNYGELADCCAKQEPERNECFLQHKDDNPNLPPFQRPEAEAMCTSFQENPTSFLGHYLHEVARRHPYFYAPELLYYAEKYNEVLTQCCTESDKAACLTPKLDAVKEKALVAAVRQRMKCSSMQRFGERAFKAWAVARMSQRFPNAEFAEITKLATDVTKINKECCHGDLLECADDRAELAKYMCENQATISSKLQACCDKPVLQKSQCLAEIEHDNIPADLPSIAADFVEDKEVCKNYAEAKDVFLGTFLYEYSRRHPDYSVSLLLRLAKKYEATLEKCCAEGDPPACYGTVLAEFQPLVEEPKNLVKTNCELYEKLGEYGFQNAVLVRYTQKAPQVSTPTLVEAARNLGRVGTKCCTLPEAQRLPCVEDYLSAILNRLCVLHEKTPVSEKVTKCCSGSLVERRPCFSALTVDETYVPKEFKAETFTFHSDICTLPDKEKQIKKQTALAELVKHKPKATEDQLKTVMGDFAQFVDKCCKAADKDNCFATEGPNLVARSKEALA

With “GAlbudAb, DPP-IV resistant GLP-1 (7–36, A8G) fused to the DOM7h-14 AlbudAb” the cAMP-driven luciferase reporter gene expression in CHO cells stably transfected with human GLP-1 receptor (EC50) [1] was 100 pM, the Kd (rat serum albumin (rat)) was 275 nM and the Kd [2] was 395 nM. For the same substance, the Kd [3] was 143 nM.

With GLP-1 (7–36) peptide the cAMP-driven luciferase reporter gene expression in CHO cells stably transfected with human GLP-1 receptor (EC50) [1] was 100 pM.
